Measurements from PMC6362308.

Target: taxol-stabilized microtubules
Test: co-sedimentation; 0.1 uM recombinant RECQL4 with or without 2 uM taxol-stabilized microtubules, 15 min, 20,000 g for 10 min at RT; supernatant and pellet analysed by Coomassie staining and Western blot against His6-tag (Fig 1B)

Sequence of taxol-stabilized microtubules (P68363 whole entry, chain 1 of 2): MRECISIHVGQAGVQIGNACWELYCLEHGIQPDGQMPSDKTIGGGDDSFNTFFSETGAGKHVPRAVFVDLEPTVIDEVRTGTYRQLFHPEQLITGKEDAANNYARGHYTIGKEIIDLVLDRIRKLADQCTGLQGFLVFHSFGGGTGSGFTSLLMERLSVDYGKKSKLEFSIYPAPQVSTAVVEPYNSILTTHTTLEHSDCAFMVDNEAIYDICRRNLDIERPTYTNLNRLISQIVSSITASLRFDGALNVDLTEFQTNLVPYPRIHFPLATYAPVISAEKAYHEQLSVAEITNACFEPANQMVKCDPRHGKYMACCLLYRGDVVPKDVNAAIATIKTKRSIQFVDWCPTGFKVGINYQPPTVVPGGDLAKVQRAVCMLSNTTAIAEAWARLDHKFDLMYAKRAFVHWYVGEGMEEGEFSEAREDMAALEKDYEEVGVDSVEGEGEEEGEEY
Sequence of taxol-stabilized microtubules (A8K068 whole entry, chain 2 of 2, further chain): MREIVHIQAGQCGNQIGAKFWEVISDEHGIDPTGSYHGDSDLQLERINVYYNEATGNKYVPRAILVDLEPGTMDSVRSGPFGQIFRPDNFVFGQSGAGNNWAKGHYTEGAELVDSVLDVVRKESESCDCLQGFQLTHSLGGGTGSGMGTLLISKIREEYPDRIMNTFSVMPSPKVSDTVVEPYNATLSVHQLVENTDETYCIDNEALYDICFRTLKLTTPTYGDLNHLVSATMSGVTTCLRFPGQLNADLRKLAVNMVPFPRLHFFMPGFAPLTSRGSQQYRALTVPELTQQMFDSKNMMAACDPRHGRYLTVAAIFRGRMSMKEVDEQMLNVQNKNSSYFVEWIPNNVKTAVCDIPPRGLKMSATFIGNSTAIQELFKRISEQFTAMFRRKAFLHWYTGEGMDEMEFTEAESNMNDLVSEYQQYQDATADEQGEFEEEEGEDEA

percent of the protein in the pellet: 100%
Substance: Recombinant Xenopus RECQL4 expressed in insect cells (natural protein)
